# T1: LRRC7, Q96NW7
# T1 sequence (Q96NW7 1440-1537, limits assumed, looked up): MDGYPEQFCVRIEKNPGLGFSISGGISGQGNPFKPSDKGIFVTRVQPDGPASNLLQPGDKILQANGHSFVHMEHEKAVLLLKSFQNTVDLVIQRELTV
# T2: PCLO, Q9Y6V0
# T2 sequence (Q9Y6V0 4491-4600, limits assumed, looked up): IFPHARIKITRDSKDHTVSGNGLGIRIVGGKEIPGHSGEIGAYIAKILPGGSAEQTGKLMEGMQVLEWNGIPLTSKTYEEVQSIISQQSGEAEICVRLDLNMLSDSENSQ
# T3: LIN7B, Q9HAP6
# T3 sequence (Q9HAP6 88-185, limits assumed, looked up): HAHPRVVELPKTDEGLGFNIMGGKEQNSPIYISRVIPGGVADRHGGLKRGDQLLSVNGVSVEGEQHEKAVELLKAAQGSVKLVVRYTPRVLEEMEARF
# T4: NHERF3_3, Q5T2W1
# T4 sequence (Q5T2W1 238-333, limits assumed, looked up): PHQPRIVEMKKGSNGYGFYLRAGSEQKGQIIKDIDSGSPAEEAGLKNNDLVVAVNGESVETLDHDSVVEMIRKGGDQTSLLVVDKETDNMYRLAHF
# T5: LNX2_2, Q8N448
# T5 sequence (Q8N448 334-432, limits assumed, looked up): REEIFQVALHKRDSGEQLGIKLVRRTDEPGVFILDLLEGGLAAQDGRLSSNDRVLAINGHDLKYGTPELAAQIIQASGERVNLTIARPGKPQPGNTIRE
# T6: NHERF3_1, Q5T2W1
# T6 sequence (Q5T2W1 4-100, limits assumed, looked up): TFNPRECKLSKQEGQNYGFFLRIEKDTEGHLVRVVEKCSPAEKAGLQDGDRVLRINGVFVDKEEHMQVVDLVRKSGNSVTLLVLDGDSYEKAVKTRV
# T7: SNTG1, Q9NSN8
# T7 sequence (Q9NSN8 52-150, limits assumed, looked up): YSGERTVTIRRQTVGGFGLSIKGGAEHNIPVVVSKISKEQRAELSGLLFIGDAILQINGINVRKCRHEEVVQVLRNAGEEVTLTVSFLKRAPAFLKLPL
# T8: CARD11, Q9BXL7
# T8 sequence (Q9BXL7 662-765, limits assumed, looked up): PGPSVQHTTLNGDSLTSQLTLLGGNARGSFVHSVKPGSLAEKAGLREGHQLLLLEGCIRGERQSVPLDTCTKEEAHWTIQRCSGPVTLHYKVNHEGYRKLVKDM
# T9: HTRA3, P83110
# T9 sequence (P83110 354-453, limits assumed, looked up): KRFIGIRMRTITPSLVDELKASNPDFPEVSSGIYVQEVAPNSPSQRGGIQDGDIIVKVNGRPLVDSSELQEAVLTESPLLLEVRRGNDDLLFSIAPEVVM
# B1: RNF130, Q86XS8 (peptide)
# chain: SLNANEVEWF
# B2: JUP, P14923 (peptide)
# chain: PYPTADHMLA
# B3: FZD4, Q9ULV1 (peptide)
# chain: KPGKGSETVV
# Target: IL16_3, Q14005
# Assay: holdup assay
# Design: key: below the threshold = too weak to quantify, mostly under pKd 3.1 to 4
# Conditions: plain residues with an end cap or a label only (N-terminal biotin on a linker: ado-ado)
# IL16_3, Q14005, sequence (Q14005 1107-1207): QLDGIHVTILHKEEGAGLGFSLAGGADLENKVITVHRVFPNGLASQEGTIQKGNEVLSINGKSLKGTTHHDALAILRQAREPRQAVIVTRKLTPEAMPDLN
row,pKd,Binder
1,below the threshold,B1
2,below the threshold,B2
3,below the threshold,B3

# Target: T1, LRRC7, Q96NW7
# Assay: holdup assay
# Design: key: below the threshold = too weak to quantify, mostly under pKd 3.1 to 4
# Conditions: plain residues with an end cap or a label only (N-terminal biotin on a linker: ado-ado)
row,pKd,Binder
1,below the threshold,B1
2,below the threshold,B2
3,below the threshold,B3

# Target: LAP2, Q96RT1
# Assay: holdup assay
# Design: key: below the threshold = too weak to quantify, mostly under pKd 3.1 to 4
# Conditions: plain residues with an end cap or a label only (N-terminal biotin on a linker: ado-ado)
# LAP2, Q96RT1, sequence (Q96RT1 other isoform, or with tags, fused parts or gaps): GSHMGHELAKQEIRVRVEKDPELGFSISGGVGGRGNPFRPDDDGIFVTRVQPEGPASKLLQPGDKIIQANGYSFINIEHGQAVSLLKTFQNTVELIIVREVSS
row,pKd,Binder
1,below the threshold,B1
2,below the threshold,B2
3,below the threshold,B3

# Target: DLG4_3, P78352
# Assay: holdup assay
# Design: key: below the threshold = too weak to quantify, mostly under pKd 3.1 to 4
# Conditions: plain residues with an end cap or a label only (N-terminal biotin on a linker: ado-ado)
# DLG4_3, P78352, sequence (P78352 306-403): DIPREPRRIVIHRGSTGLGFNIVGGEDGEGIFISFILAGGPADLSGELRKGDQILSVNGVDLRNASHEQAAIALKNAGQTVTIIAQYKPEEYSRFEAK
row,pKd,Binder
1,below the threshold,B1
2,below the threshold,B2
3,3.79,B3

# Target: DLG5_1, Q8TDM6
# Assay: holdup assay
# Design: key: below the threshold = too weak to quantify, mostly under pKd 3.1 to 4
# Conditions: plain residues with an end cap or a label only (N-terminal biotin on a linker: ado-ado)
# DLG5_1, Q8TDM6, sequence (Q8TDM6 617-713): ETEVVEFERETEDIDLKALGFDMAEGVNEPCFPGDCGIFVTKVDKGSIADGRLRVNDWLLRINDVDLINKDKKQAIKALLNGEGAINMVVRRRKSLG
row,pKd,Binder
1,below the threshold,B1
2,below the threshold,B2
3,3.54,B3

# Target: MAGI2_4, Q86UL8
# Assay: holdup assay
# Design: key: below the threshold = too weak to quantify, mostly under pKd 3.1 to 4
# Conditions: plain residues with an end cap or a label only (N-terminal biotin on a linker: ado-ado)
# MAGI2_4, Q86UL8, sequence (Q86UL8 772-865): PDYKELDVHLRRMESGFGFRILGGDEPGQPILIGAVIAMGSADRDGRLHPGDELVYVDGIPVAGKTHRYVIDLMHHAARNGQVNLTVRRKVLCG
row,pKd,Binder
1,3.94,B1
2,below the threshold,B2
3,4.48,B3

# Target: T2, PCLO, Q9Y6V0
# Assay: holdup assay
# Design: key: below the threshold = too weak to quantify, mostly under pKd 3.1 to 4
# Conditions: plain residues with an end cap or a label only (N-terminal biotin on a linker: ado-ado)
row,pKd,Binder
1,below the threshold,B1
2,below the threshold,B2
3,below the threshold,B3

# Target: T3, LIN7B, Q9HAP6
# Assay: holdup assay
# Design: key: below the threshold = too weak to quantify, mostly under pKd 3.1 to 4
# Conditions: plain residues with an end cap or a label only (N-terminal biotin on a linker: ado-ado)
row,pKd,Binder
1,3.89,B1
2,3.6,B2
3,below the threshold,B3

# Target: Inadl_5, Q8NI35
# Assay: holdup assay
# Design: key: below the threshold = too weak to quantify, mostly under pKd 3.1 to 4
# Conditions: plain residues with an end cap or a label only (N-terminal biotin on a linker: ado-ado)
# Inadl_5, Q8NI35, sequence (Q8NI35 673-780): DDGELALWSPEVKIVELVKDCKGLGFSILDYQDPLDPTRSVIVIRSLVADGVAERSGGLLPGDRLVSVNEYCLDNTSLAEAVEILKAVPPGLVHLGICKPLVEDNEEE
row,pKd,Binder
1,3.51,B1
2,below the threshold,B2
3,below the threshold,B3

# Target: GRID2IP_2, A4D2P6
# Assay: holdup assay
# Design: key: below the threshold = too weak to quantify, mostly under pKd 3.1 to 4
# Conditions: plain residues with an end cap or a label only (N-terminal biotin on a linker: ado-ado)
# GRID2IP_2, A4D2P6, sequence (A4D2P6 272-370): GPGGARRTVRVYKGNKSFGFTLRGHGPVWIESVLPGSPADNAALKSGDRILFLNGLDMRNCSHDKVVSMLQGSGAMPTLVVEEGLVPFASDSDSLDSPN
row,pKd,Binder
1,below the threshold,B1
2,below the threshold,B2
3,below the threshold,B3

# Target: SCRIB_3, Q14160
# Assay: holdup assay
# Design: key: below the threshold = too weak to quantify, mostly under pKd 3.1 to 4
# Conditions: plain residues with an end cap or a label only (N-terminal biotin on a linker: ado-ado)
# SCRIB_3, Q14160, sequence (Q14160 999-1103): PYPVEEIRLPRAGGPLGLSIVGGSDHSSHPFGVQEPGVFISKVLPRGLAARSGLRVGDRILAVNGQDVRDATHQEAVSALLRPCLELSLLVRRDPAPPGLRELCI
row,pKd,Binder
1,3.96,B1
2,below the threshold,B2
3,3.94,B3

# Target: SNX27, Q96L92
# Assay: holdup assay
# Design: key: below the threshold = too weak to quantify, mostly under pKd 3.1 to 4
# Conditions: plain residues with an end cap or a label only (N-terminal biotin on a linker: ado-ado)
row,pKd,Binder
1,3.94,B1
2,below the threshold,B2
3,4.62,B3

# Target: SCRIB_2, Q14160
# Assay: holdup assay
# Design: key: below the threshold = too weak to quantify, mostly under pKd 3.1 to 4
# Conditions: plain residues with an end cap or a label only (N-terminal biotin on a linker: ado-ado)
# SCRIB_2, Q14160, sequence (Q14160 857-960): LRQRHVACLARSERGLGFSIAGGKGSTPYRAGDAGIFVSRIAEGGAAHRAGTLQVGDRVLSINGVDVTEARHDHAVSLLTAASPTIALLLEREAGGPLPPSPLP
row,pKd,Binder
1,3.57,B1
2,below the threshold,B2
3,3.83,B3

# Target: T4, NHERF3_3, Q5T2W1
# Assay: holdup assay
# Design: key: below the threshold = too weak to quantify, mostly under pKd 3.1 to 4
# Conditions: plain residues with an end cap or a label only (N-terminal biotin on a linker: ado-ado)
row,pKd,Binder
1,below the threshold,B1
2,below the threshold,B2
3,below the threshold,B3

# Target: T5, LNX2_2, Q8N448
# Assay: holdup assay
# Design: key: below the threshold = too weak to quantify, mostly under pKd 3.1 to 4
# Conditions: plain residues with an end cap or a label only (N-terminal biotin on a linker: ado-ado)
row,pKd,Binder
1,3.7,B1
2,below the threshold,B2
3,4.92,B3

# Target: GRIP2_7, Q9C0E4
# Assay: holdup assay
# Design: key: below the threshold = too weak to quantify, mostly under pKd 3.1 to 4
# Conditions: plain residues with an end cap or a label only (N-terminal biotin on a linker: ado-ado)
# GRIP2_7, Q9C0E4, sequence (Q9C0E4 934-1023): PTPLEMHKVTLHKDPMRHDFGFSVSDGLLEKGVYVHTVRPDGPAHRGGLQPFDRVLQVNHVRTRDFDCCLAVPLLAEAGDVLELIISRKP
row,pKd,Binder
1,3.94,B1
2,below the threshold,B2
3,below the threshold,B3

# Target: TJP2_1, Q9UDY2
# Assay: holdup assay
# Design: key: below the threshold = too weak to quantify, mostly under pKd 3.1 to 4
# Conditions: plain residues with an end cap or a label only (N-terminal biotin on a linker: ado-ado)
# TJP2_1, Q9UDY2, sequence (Q9UDY2 24-128): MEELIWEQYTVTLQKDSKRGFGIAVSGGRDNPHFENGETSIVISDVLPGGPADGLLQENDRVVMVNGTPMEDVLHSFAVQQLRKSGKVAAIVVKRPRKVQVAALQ
row,pKd,Binder
1,3.67,B1
2,below the threshold,B2
3,below the threshold,B3

# Target: T6, NHERF3_1, Q5T2W1
# Assay: holdup assay
# Design: key: below the threshold = too weak to quantify, mostly under pKd 3.1 to 4
# Conditions: plain residues with an end cap or a label only (N-terminal biotin on a linker: ado-ado)
row,pKd,Binder
1,3.89,B1
2,below the threshold,B2
3,below the threshold,B3

# Target: T7, SNTG1, Q9NSN8
# Assay: holdup assay
# Design: key: below the threshold = too weak to quantify, mostly under pKd 3.1 to 4
# Conditions: plain residues with an end cap or a label only (N-terminal biotin on a linker: ado-ado)
row,pKd,Binder
1,below the threshold,B1
2,below the threshold,B2
3,3.91,B3

# Target: T8, CARD11, Q9BXL7
# Assay: holdup assay
# Design: key: below the threshold = too weak to quantify, mostly under pKd 3.1 to 4
# Conditions: plain residues with an end cap or a label only (N-terminal biotin on a linker: ado-ado)
row,pKd,Binder
1,below the threshold,B1
2,below the threshold,B2
3,below the threshold,B3

# Target: GOPC, Q9HD26
# Assay: holdup assay
# Design: key: below the threshold = too weak to quantify, mostly under pKd 3.1 to 4
# Conditions: plain residues with an end cap or a label only (N-terminal biotin on a linker: ado-ado)
row,pKd,Binder
1,below the threshold,B1
2,below the threshold,B2
3,3.73,B3

# Target: Inadl_10, Q8NI35
# Assay: holdup assay
# Design: key: below the threshold = too weak to quantify, mostly under pKd 3.1 to 4
# Conditions: plain residues with an end cap or a label only (N-terminal biotin on a linker: ado-ado)
# Inadl_10, Q8NI35, sequence (Q8NI35 1673-1763): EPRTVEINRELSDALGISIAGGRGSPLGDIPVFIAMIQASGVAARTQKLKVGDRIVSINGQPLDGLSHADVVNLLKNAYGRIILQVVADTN
row,pKd,Binder
1,below the threshold,B1
2,below the threshold,B2
3,below the threshold,B3

# Target: PICK1, Q9NRD5
# Assay: holdup assay
# Design: key: below the threshold = too weak to quantify, mostly under pKd 3.1 to 4
# Conditions: plain residues with an end cap or a label only (N-terminal biotin on a linker: ado-ado)
# PICK1, Q9NRD5, sequence (Q9NRD5 17-115): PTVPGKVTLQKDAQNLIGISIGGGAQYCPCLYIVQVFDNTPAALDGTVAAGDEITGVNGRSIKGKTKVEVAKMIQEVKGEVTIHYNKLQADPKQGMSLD
row,pKd,Binder
1,below the threshold,B1
2,below the threshold,B2
3,below the threshold,B3

# Target: GRIP2_5, Q9C0E4
# Assay: holdup assay
# Design: key: below the threshold = too weak to quantify, mostly under pKd 3.1 to 4
# Conditions: plain residues with an end cap or a label only (N-terminal biotin on a linker: ado-ado)
# GRIP2_5, Q9C0E4, sequence (Q9C0E4 544-642): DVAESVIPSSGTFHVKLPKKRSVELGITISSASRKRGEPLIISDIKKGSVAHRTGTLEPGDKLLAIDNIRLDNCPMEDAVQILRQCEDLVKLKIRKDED
row,pKd,Binder
1,below the threshold,B1
2,below the threshold,B2
3,below the threshold,B3

# Target: LDB3, O75112
# Assay: holdup assay
# Design: key: below the threshold = too weak to quantify, mostly under pKd 3.1 to 4
# Conditions: plain residues with an end cap or a label only (N-terminal biotin on a linker: ado-ado)
# LDB3, O75112, sequence (O75112 1-94): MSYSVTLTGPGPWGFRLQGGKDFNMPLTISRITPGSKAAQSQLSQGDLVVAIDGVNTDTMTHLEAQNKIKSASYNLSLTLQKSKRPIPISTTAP
row,pKd,Binder
1,below the threshold,B1
2,below the threshold,B2
3,below the threshold,B3

# Target: T9, HTRA3, P83110
# Assay: holdup assay
# Design: key: below the threshold = too weak to quantify, mostly under pKd 3.1 to 4
# Conditions: plain residues with an end cap or a label only (N-terminal biotin on a linker: ado-ado)
row,pKd,Binder
1,4.68,B1
2,below the threshold,B2
3,below the threshold,B3

# Target: NHERF4_1, Q86UT5-2
# Assay: holdup assay
# Design: key: below the threshold = too weak to quantify, mostly under pKd 3.1 to 4
# Conditions: plain residues with an end cap or a label only (N-terminal biotin on a linker: ado-ado)
# NHERF4_1, Q86UT5-2, sequence (Q86UT5 other isoform, or with tags, fused parts or gaps): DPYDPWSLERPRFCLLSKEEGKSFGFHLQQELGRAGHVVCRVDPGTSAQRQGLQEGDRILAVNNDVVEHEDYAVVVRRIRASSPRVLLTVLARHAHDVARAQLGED
row,pKd,Binder
1,3.89,B1
2,below the threshold,B2
3,below the threshold,B3

# Target: NHERF4_2, Q86UT5
# Assay: holdup assay
# Design: key: below the threshold = too weak to quantify, mostly under pKd 3.1 to 4
# Conditions: plain residues with an end cap or a label only (N-terminal biotin on a linker: ado-ado)
# NHERF4_2, Q86UT5, sequence (Q86UT5 220-308): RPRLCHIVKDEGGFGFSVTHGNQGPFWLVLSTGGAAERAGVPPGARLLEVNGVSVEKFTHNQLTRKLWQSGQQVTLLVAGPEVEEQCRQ
row,pKd,Binder
1,below the threshold,B1
2,below the threshold,B2
3,below the threshold,B3

# — publication PMC9482650, “Quantitative fragmentomics allow affinity mapping of interactomes” (Nature Communications, 2022)
